Source: the supplement of paper PMC12042874
± gives the uncertainty stated by the source.

Experiment: amyloid nucleation score (Sup35N fusion, yeast selection) (log enrichment); library NNK2; higher = more nucleation; inactive = no reads after selection
Outline: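 Libraries of peptides of 20 random codons fused to Sup35N were expressed in psi-negative yeast and induced 24 hours with 100 μM copper sulfate. Selection was 7 days at 30°C on medium lacking adenine and uracil, and plasmid inserts were Illumina-sequenced before and after selection. Nucleation score is the DiMSum log enrichment of output over input reads, centred on the mode score of non-aggregating sequences, and sequences with under 100 input reads were left out.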

| Substance | amyloid nucleation score |
| --- | --- |
| CRSCEIVLGFLLSCNMCVLS | 3.79 ± 0.06 |
| YGKADCPSLGVYMRL | 2.25 ± 0.15 |
| IYVVMFSKRLNSNFW | -1.62 ± 0.62 |
| TMYFWLMSLVWLLSVSFRAW | 2.54 ± 0.1 |
| LLFQVLPKMTSAPPSGWSTP | 0.547 ± 0.81 |
| PLCRRLVLLFRIFYNSRN | -1.46 ± 1.1 |
| AMVLLYDGTGSTGVNPGQAG | 0.987 ± 0.67 |
| ICFVFF | -0.777 ± 1 |
| TIFFMGM | 3.65 ± 0.07 |
| CIKLRR | inactive |
| CAPQSGKLGG | 1.01 ± 0.59 |
| LHCYFFRLMCQSYDRDYKC | -0.249 ± 1 |
| GINCRGAIR | -0.345 ± 0.26 |
| LVYNI | -0.081 ± 1.1 |
| ICFIVSSFRY | 2.58 ± 0.23 |
| SCGIVRERFIVFELWSVCSG | -0.147 ± 0.42 |
| TRRCIERNRNVLFFTFMCRL | 1.41 ± 0.27 |
| LIGCPLVDFTLYLCS | inactive |
| IADQTMISRYSRS | 5.89 ± 0.084 |
| IVFVLLSYYLL | 3.4 ± 0.037 |
| TGRHKVTDLRIWILWSYTGA | -0.398 ± 0.63 |
| MYSLR | inactive |
| KVLFTGFFANVGFSSSVRAN | -0.567 ± 1.1 |
| RCYINFGIHGLWMLHVCFWG | -0.849 ± 1.1 |
| SAINIFGALAKCFMVMLALF | inactive |

| Substance | amyloid nucleation score |
| --- | --- |
| ICILDYND | -1.15 ± 0.76 |
| YIGVKKNNSMAGAYGGSLAQ | inactive |
| ITFRTYILPDSWIRPRTFEK | 3.29 ± 0.054 |
| GLHEVR | 0.042 ± 0.65 |
| RFYVGTIFSPYILLSSTECM | 3.82 ± 0.06 |
| VSYDVNIFWYPKKMS | inactive |
| SICVRKYVKFWVWAMNTLFR | -0.174 ± 0.19 |
| ASILMSRKTMGSNRHCSFVG | 0.345 ± 0.3 |
| THEIFMHSYY | -0.913 ± 1.1 |
| FLPCL | -0.739 ± 1 |
| NLCRQVACTLLSLPSDTPRF | 8.842 ± 0.03 |
| ELFQIAVTRTKFLLVQSSYS | 1.27 ± 0.18 |
| VWGWD | -0.517 ± 0.78 |
| GASPWPHTTMIFISILSNCV | 3.37 ± 0.11 |
| TYVHDPGFPLWLDMAKRFGL | 0.581 ± 0.5 |
| AYRQMYTGNVR | 3.97 ± 0.067 |
| HPGMVVIAE | 3.97 ± 0.075 |
| FSDIWPLRP | 0.806 ± 0.15 |
| EEYFDWSMKCKLIYINRVPL | -0.358 ± 1 |
| YEGYLVSVQLRRMWDVQLGP | 3.79 ± 0.054 |
| NCRLKLPSP | 3.69 ± 0.05 |
| IAKPSVRHMYSFHVVDKTGH | inactive |
| QLNIHLMNLRI | 9.23 ± 0.056 |
| PVFRFTSGPLDKNCVYRVN | 0.564 ± 0.57 |
| TLMFVKNFDVRCEWEASFTM | 5.37 ± 0.077 |

| Substance | amyloid nucleation score |
| --- | --- |
| IITYVLLFNKFNTGVCE | 7.393 ± 0.049 |
| VANEDDRYYTYGADWERLLL | 0.844 ± 0.56 |
| QIPVELNNVLNLYLVLCRIE | -0.459 ± 1.1 |
| IVRVSEPIEVHVHVNAVYSV | 4.68 ± 0.083 |
| CEFQILSN | -0.381 ± 0.56 |
| FVDVKHDVVKAMRLWFR | -0.632 ± 1.1 |
| MMKGRDKTGYPTTRGVMCDK | 0.232 ± 0.18 |
| GNLGSHYALGPLDRATRGER | 0.632 ± 0.26 |
| ERSIARSFRLAADFCSYSRR | inactive |
| HVFADERMDVGGSITVTARG | 0.164 ± 1.1 |
| CNSIDMTHKVTLKMSFIFIE | 6.703 ± 0.061 |
| VGLFNVTLAFVLYGSSRLVL | 4.12 ± 0.057 |
| LVMVWFLNLVFCFGDFNSNR | 0.74 ± 0.18 |
| ALFSIITVFSVRLVVWT | inactive |
| VVLTAVHFQCLLTLTVPIEV | -0.158 ± 0.48 |
| LLLHSIQIYDMRR | 5.53 ± 0.089 |
| PFAWANKYTIQPINPYRGAA | -0.552 ± 0.41 |
| TYVYNGAYVVGNWL | -0.964 ± 0.54 |
| QLENMCFFSPLQTYMLDRNW | -1.47 ± 0.41 |
| HTSVFFRKKPGSCISRSLSL | inactive |
| MYVDLWFGTYRNS | 0.532 ± 0.54 |
| SFVAAEQIMASIEW | 0.706 ± 0.29 |
| FILCMTSWDYLDDCRFLFEL | 1.03 ± 0.25 |
| ARFFGFYYPTTGIPGNYGFC | -0.315 ± 1 |
| SGPVERFLILLIRCMNRLYV | -1.19 ± 0.44 |

| Substance | amyloid nucleation score |
| --- | --- |
| DDIKIWFRATVHVVF | inactive |
| SNFCFSTR | 0.328 ± 0.32 |
| SLDQFSFGC | 0.027 ± 0.65 |
| YPKFYIWYYVYRLLALTCVY | -1.03 ± 0.37 |
| WFRRQSLGWVRANGPVMRIS | 0.035 ± 0.34 |
| HIMIFWYPVLTIKVQYDVGV | inactive |
| MVYGLDFIGASL | -0.016 ± 0.5 |
| RCKWVRGVSRMPNHWN | 0.779 ± 0.4 |
| RIVFHYVCTVLR | -0.964 ± 0.76 |
| FSEWRIGKNMIFCDVIDVCE | 1.94 ± 0.089 |
| AGPDSVQCRCSLKSSEGSCG | 6.776 ± 0.066 |
| SLDFAFRFFSICVICGQNAR | 4.76 ± 0.082 |
| YWFKSFSWFPVNIVIYNMEK | 5 ± 0.094 |
| LLASRWPRYLNSWRKSHVKV | -0.133 ± 1 |
| GSYVTAISAHFVGKLCASRI | 0.343 ± 0.8 |
| WKFSYDFSASASGHHALVNK | 3.22 ± 0.13 |
| SYHVVCFVYVLVTFLLWCSH | 2.22 ± 0.14 |
| NLRSYIRGSLFGFCSRLWEN | 3.09 ± 0.08 |
| AHLARGGWFVKRCYSGGDVF | -0.087 ± 0.76 |
| TFGTSFKYFMSWLIDRCCYL | -0.836 ± 1.1 |
| VTVTYLWIC | 1.88 ± 0.28 |
| LSHMFVTALIVIEKFCLTAL | 0.111 ± 0.39 |
| YPYSSWRGSVHCELGINGMG | 0.29 ± 0.77 |
| KITCVITNALCSLTERADR | 9.394 ± 0.069 |
| CLSPW | 0.202 ± 0.46 |

| Substance | amyloid nucleation score |
| --- | --- |
| WFFKTAMWVITT | 0.081 ± 1.1 |
| PSFTLMDVFRI | 0.701 ± 0.26 |
| HGHLHYLMNR | -0.031 ± 1 |
| GAELPKYESRLPFLSAGLRQ | -0.048 ± 0.53 |
| YMFAIHELNGEIIGPFTVNP | inactive |
| IYGLYG | 0.515 ± 0.51 |
| GREPESF | 1.72 ± 0.13 |
| GPLFPNFKSLGGEYRRH | 0.325 ± 0.42 |
| VVVNNGTGKVPFDDM | -0.952 ± 0.42 |
| WTLYKTMIMVSSVPFIIKIC | -1.2 ± 0.76 |
| NTLTTFVIGGCCLRFEASYM | 10.52 ± 0.077 |
| TFFYMRFPGFLFSNSSNAW | 1.47 ± 0.24 |
| YHEIFF | -0.243 ± 0.4 |
| EETVLIFLCYMAGRDLYKVN | 3.21 ± 0.096 |
| LMSIVVKVVDSTIIIKCVFS | -0.667 ± 0.76 |
| ATDVCKKLWFALLVSVLVSS | 0.642 ± 0.48 |
| KMYYGSKNTKSDLARTYGTL | 1.61 ± 0.44 |
| TLGMYFFVSMLSLLVSVNGF | -0.427 ± 1.1 |
| RFNTCLDS | -0.005 ± 0.29 |
| RYIIL | 0.728 ± 0.62 |
| YTAQRLNSTYI | -0.506 ± 1 |
| TIDWTMSHCMI | -0.055 ± 0.56 |
| WNTIYMSTFVIRDFAIYIKY | 7.53 ± 0.058 |
| RFQELMTK | 0.626 ± 0.8 |
| GWCVHSKKDGKYCRSYTRQF | -0.136 ± 0.23 |

| Substance | amyloid nucleation score |
| --- | --- |
| KVTSRTTGMIVSFFMPCLEM | 5.97 ± 0.072 |
| ENLSQQMFWFKYAKVWGNVH | -0.724 ± 0.39 |
| STRCCTRYVCRTAV | -0.158 ± 0.34 |
| RFWPWLLVRPNFPMLSQ | 0.216 ± 0.37 |
| WYTPRLRMLHLAEKGVRVVV | 4.31 ± 0.089 |
| LSVSKSSIYLLLMRSRGHG | 0.175 ± 0.55 |
| YSCFEMSCVGLGDVMIFIVL | 8.119 ± 0.037 |
| CADFSGLFG | inactive |
| VFVSCYYAYLLRDTTNFYVG | inactive |
| DGGMR | 0.322 ± 0.5 |
| IDLNLYERFDFQFTVSVPSV | inactive |
| FDILDCDNLELGLYIFILDL | -1.14 ± 1 |
| TSRRL | 2.1 ± 0.13 |
| LFSVLL | -0.916 ± 1 |
| FCFLKFCMLHRLLVFLWRQF | 1.54 ± 0.11 |
| FMQGPFNYTRMLSL | -0.808 ± 1.1 |
| FNDRKYESCDSDDC | -1.99 ± 0.62 |
| ILLPSFRPLRQAAAG | -0.311 ± 0.79 |
| HNLMCYGWNFLSVSVVDNCD | 6.552 ± 0.05 |
| SNYGTGDGCCVGV | 1.81 ± 0.099 |
| ACFSNMDCPGGFVHVFALYG | inactive |
| WYHGSASCEYIGYVYPWHAA | 3.58 ± 0.064 |
| TCLSRVPPS | -0.797 ± 0.61 |
| VWYYGSRKCHAVYLRNRMSV | -0.192 ± 0.41 |
| MKGNSSGVA | 1.25 ± 0.31 |

| Substance | amyloid nucleation score |
| --- | --- |
| LGSDMRLRMTYCPKRCVRWH | 2.77 ± 0.14 |
| CSLFLWGLMDLLV | inactive |
| EYSNFVTNEYEWIVGPTWSS | 6.317 ± 0.026 |
| CTLRSLEAVLRVLIGYALRH | 0.223 ± 0.3 |
| VLIFRAMIFDDKALVGMKD | -0.521 ± 0.45 |
| FKRSTCNLR | -0.479 ± 0.29 |
| GLERNRFGRQCLGWLLWNEA | 0.065 ± 1.1 |
| LKTGSF | inactive |
| ELSRAGYEWCLGSHTSLVSS | 0.836 ± 0.32 |
| GWVKTLEGLLMCLVVCNTVM | 2.98 ± 0.12 |
| VDISNFTVCRHAIKDLTFRV | 0.149 ± 0.41 |
| TVMGPVILTCVGIAVTSASS | 3.86 ± 0.1 |
| DECCMWMVLPEGSPAQRPLG | 1.04 ± 0.34 |
| NYITSSVCFCCSDPMYTPSR | 8.552 ± 0.031 |
| AMQVVTVLNATACEMWAMGL | 7.498 ± 0.034 |
| VEALSISMQLYYRSLVAG | -0.066 ± 1 |
| RTGRRSAFCTSVRRLNPDCL | 1.17 ± 0.41 |
| VPSQRNWFC | 0.007 ± 0.63 |
| SLWNIVRCRVENDSSGTQGF | -0.414 ± 0.5 |
| MLKMS | 1.85 ± 0.15 |
| PRFAYCSSIANKMMGVG | 2.36 ± 0.18 |
| IVYLWRNRWVDLADYLLHVM | 0.313 ± 0.29 |
| ILVNLVVVIKSSYRLSKCRF | -0.67 ± 1.1 |
